# In US20250019454A1 (BIOCYTOGEN PHARMACEUTICALS BEIJING, published 2025):
# B1: BC-1B6-IgG1-LALA (antibody, V domains shown)
# VH: QVQLVESGGGVVQPGRSLRLSCAASGFTFSNFGMHWVRQAPGKGLEWVAVIWYEGSDKYYADSVKGRFTISRDNSKNTLYLQMNSLRAEDTAVYYCARDSSWGFLLYGMDVWGQGTTVTVSS
# VL: DVVMTQSPLSLPVTLGQPASISCRSSRSLEYSDGNTYLNWFQQRPGQSPRRLIYKVSNRDSGVPDRFSGSGSGTAFTLKISGVEAEDVGVYYCMQGTHWPPTFGGGTKVEIK
# Legend:
# [1] = target: T1, ΔCRD3-TNFR2 protein (with CRD3 deletion), on CHO-S cells (human, UniProt P20333 23-461); test: FACS on CHO-S cells with ΔCRD3-TNFR2
# T1 construct: also called CHO-SΔCRD3-TNFR2; TNFR2 lacking CRD3
# T1 sequence: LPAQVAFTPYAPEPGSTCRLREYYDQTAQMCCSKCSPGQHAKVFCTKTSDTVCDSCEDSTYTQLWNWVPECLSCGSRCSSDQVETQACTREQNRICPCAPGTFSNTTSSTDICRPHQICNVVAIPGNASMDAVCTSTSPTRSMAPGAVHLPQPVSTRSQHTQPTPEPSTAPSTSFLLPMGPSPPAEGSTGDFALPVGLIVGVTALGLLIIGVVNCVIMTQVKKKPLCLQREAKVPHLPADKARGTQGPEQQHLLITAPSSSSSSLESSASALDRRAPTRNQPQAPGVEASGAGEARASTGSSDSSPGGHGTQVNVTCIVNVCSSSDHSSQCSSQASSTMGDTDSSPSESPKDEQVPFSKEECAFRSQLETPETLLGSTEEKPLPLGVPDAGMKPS
# Description: (§1) TNFR2 has four cysteine rich domains (CRD). In another experiment, FACS was used to detect the binding of anti-hTNFR2 antibodies to TNFR2 proteins with different structural domains. Secondary antibody (Alexa Fluor® 647 AffiniPure F(ab′) 2 Fragment Goat Anti-Human IgG, Fcγ fragment specific, Jackson ImmunoResearch Laboratories, Inc., Cat #: 151524) was used. The fluorescence-labeled secondary antibody can attach to the Fc region of the anti-hTNFR2 antibodies so that the anti-hTNFR2 antibodies that are bound to the ΔCRD cells can be detected by FACS. Specifically, ΔCRD1-TNFR2 protein (with CRD1 deleteion), ΔCRD2-TNFR2 protein (with CRD2 deleteion), ΔCRD3-TNFR2 protein (with CRD3 deleteion) or ΔCRD4-TNFR2 protein (with CRD4 deleteion) were expressed in CHO-S cells respectively, and then the binding between the cells and different anti-hTNFR2 antibodies was detected.
# [2] = target: T2, ΔCRD4-TNFR2 protein (with CRD4 deletion), on CHO-S cells (human, UniProt P20333 23-461); test: FACS on CHO-S cells with ΔCRD4-TNFR2
# T2 construct: also called CHO-SΔCRD4-TNFR2; TNFR2 lacking CRD4
# T2 sequence: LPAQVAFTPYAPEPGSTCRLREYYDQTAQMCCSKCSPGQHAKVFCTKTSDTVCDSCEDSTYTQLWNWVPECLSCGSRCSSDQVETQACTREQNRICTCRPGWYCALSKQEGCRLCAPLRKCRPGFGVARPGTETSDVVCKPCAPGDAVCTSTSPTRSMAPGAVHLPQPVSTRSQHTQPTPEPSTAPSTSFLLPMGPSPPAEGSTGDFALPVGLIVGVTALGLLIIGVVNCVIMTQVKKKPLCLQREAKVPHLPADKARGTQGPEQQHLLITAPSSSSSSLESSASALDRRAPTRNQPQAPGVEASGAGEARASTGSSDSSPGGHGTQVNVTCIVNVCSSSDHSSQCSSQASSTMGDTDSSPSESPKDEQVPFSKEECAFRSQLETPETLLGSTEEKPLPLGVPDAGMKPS
# Description: as §1
# [3] = target: T1, ΔCRD3-TNFR2 protein (with CRD3 …); test: FACS on CHO-S cells with ΔCRD3-TNFR2, AF647 anti-human IgG Fc secondary
# Description: as §1
# [4] = target: T3, ΔCRD2-TNFR2 protein (with CRD2 deletion), on CHO-S cells (human, UniProt P20333 23-461); test: FACS on CHO-S cells with ΔCRD2-TNFR2, AF647 anti-human IgG Fc secondary
# T3 construct: also called CHO-SΔCRD2-TNFR2
# T3 sequence: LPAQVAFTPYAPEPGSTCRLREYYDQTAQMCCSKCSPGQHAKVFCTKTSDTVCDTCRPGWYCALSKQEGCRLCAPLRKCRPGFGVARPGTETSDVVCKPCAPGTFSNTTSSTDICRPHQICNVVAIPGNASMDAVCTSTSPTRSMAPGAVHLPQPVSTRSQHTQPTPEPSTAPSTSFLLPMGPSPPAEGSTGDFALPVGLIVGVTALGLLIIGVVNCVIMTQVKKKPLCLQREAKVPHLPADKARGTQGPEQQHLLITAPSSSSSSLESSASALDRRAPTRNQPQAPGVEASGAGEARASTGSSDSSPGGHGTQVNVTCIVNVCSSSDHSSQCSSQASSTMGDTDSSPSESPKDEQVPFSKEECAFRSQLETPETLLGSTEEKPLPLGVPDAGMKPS
# Description: as §1
# [5] = target: T2, ΔCRD4-TNFR2 protein (with CRD4 …); test: FACS on CHO-S cells with ΔCRD4-TNFR2, AF647 anti-human IgG Fc secondary
# Description: as §1
# [6] = target: T4, ΔCRD1-TNFR2 protein (with CRD1 deletion), on CHO-S cells (human, UniProt P20333 23-461); test: FACS on CHO-S cells with ΔCRD1-TNFR2, AF647 anti-human IgG Fc secondary
# T4 construct: also called CHO-SΔCRD1-TNFR2
# T4 sequence: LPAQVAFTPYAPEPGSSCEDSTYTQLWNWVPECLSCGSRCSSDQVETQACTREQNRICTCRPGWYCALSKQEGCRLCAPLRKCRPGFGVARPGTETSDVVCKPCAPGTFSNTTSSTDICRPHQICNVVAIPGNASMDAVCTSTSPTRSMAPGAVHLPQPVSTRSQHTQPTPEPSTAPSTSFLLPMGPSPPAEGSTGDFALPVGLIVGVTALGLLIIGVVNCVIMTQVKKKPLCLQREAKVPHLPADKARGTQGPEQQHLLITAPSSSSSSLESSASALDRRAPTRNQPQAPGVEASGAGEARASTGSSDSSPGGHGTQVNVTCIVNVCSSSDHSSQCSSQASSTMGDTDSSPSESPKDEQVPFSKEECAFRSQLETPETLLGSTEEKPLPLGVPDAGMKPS
# Description: as §1
binder,measurement,setting,value
B1,binding result,[1],no binding
same,binding result,[2],no binding
same,positive rate of binding (% of cells),[3],0.44%
same,positive rate of binding (% of cells),[4],75.6%
same,positive rate of binding (% of cells),[5],0.83%
same,positive rate of binding (% of cells),[6],66.5%
